Experimental data from patent US20170101472A1 (Regeneron, published 2017).
One block for each binder: values may come before it.

How the values were obtained:
[1] = target: T1, recombinant human LAG3 expressed with a C-terminal mouse IgG2a mFc tag (human); test: SPR, mAb captured, 37 C
T1 construct: Called dimeric; also called hLAG3-mFc; hLAG3 dimer
T1 chain: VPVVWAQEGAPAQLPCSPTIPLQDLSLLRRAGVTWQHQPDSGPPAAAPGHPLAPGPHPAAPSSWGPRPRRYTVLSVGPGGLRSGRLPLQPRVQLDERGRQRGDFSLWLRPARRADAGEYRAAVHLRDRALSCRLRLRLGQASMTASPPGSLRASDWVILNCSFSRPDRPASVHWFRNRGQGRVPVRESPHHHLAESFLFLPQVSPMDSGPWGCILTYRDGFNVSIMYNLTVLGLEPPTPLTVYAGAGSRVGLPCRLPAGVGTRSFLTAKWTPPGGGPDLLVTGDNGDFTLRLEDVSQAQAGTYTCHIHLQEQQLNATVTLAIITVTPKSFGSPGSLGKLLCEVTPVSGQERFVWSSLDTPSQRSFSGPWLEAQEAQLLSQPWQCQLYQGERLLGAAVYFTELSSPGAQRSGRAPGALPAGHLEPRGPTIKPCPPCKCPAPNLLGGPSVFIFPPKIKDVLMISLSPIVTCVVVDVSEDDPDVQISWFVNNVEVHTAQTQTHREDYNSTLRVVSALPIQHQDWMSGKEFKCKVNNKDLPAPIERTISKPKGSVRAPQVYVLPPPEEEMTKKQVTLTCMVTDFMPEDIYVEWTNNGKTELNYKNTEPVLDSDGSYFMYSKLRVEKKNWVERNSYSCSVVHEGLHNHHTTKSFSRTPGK
Procedure: (§1) The BiaCore sensor surface was derivatized with either a polyclonal rabbit anti-mouse antibody (GE, # BR-1008-38) or with a monoclonal mouse anti-human Fc antibody (GE, # BR-1008-39) to capture approximately 50-85 RUs of anti-LAG3 monoclonal antibodies, expressed with either a mouse Fc or a human Fc, respectively. […] The binding of the LAG3 reagents to captured monoclonal antibodies was monitored for 4 minutes while their dissociation from the antibodies was monitored for 8 minutes in HBST running buffer (0.01 M HEPES pH 7.4, 0.15 M NaCl, 3 mM EDTA, 0.05% v/v Surfactant P20). Experiments were performed at 25° C. and 37° C. Kinetic association (kₐ) and dissociation (kd) rate constants were determined by processing and fitting the data to a 1:1 binding model using Scrubber 2.0c curve fitting software. Binding dissociation equilibrium constants (KD) and dissociative half-lives (t_{1/2}) were then calculated from the kinetic rate constants as: KD (M)=kd/kₐ and t_{1/2} (min)=[ln2/(60*kd)].

[2] = target: T2, recombinant human LAG3 expressed with a C-terminal myc-myc-hexahistidine tag (human, UniProt P18627 29-450); test: SPR, mAb captured, 37 C
T2 construct: also called hLAG3-mmh; hLAG3.mmh
Procedure: as §1

[3] = target: T3, human LAG3 expressed on HEK293 cells (human, UniProt P18627 23-525); test: electrochemiluminescence cell binding, HEK293-hLAG3
T3 construct: also called hLAG3; HEK293/hLAG3
T3 sequence: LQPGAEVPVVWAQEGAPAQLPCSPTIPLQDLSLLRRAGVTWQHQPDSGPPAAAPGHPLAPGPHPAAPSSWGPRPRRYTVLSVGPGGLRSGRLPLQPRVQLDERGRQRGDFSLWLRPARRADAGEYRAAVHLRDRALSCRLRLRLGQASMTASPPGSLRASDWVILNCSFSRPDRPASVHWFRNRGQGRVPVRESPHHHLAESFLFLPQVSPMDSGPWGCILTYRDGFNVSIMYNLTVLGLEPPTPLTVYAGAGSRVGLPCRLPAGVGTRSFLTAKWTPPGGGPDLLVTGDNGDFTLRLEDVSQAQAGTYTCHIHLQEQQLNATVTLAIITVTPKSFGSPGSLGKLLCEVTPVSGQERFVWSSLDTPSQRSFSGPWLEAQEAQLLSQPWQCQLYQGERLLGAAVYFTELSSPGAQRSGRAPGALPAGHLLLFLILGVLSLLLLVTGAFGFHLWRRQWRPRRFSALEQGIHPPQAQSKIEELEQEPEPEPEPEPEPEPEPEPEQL
Procedure: (§2) To investigate the ability of a panel of anti-LAG3 monoclonal antibodies to bind cell-surface expressed LAG3, an in vitro binding assay utilizing human and monkey LAG3 expressing cell lines in an electrochemiluminescence based detection platform [Meso Scale Diagnostics, Rockville, Md.—(MSD)] was developed.
(§3) Experiments were carried out according to following procedure. Cells from the three cell lines described above were rinsed once in 1×PBS buffer without Ca²⁺/Mg²⁺ followed by 10-minute incubation at 37° C. with Enzyme Free Cell Dissociation Solution. […] Approximately 10,000 cells per well in the cell-washing buffer were seeded into the 96-well carbon electrode plates (MULTI-ARRAY high bind plate, MSD) and incubated for 1 hour at 37° C. to allow the cells to adhere. Nonspecific binding sites were blocked by 2% BSA (w/v) in PBS for 1 hour at room temperature. […] The plates were then washed to remove the unbound antibodies using an AquaMax2000 plate washer (MDS Analytical Technologies). The plate-bound antibodies were detected with a SULFO-TAG™-conjugated anti-human IgG antibody (MSD) for 1 hour at room temperature. After washes, the plates were developed with the Read Buffer (MSD) according to manufacturer's recommended procedure and the luminescent signals were recorded with a SECTOR Imager 6000 (MSD) instrument. The direct binding signals (in relative light units—RLU) were analyzed as a function of the antibody concentration and the data were fitted with a sigmoidal (four-parameter logistic) dose-response model using Graph Pad Prism™ software. The potency of each antibody was determined by calculating EC₅₀.

[4] = target: T3, human LAG3 expressed on HEK293 cells; test: electrochemiluminescence cell binding
Procedure: as §2, §3

B1: H4sH15482P (antibody, human IgG4 S228P, kappa)
heavy: QVQLVESGGGVVQPGRSLRLSCVASGFTFSSYGMHWVRQAPGKGLEWVAIIWYDGSNKYYADSVKGRFTISRDNSKNTQYLQMNSLRAEDTAVYYCASVATSGDFDYYGMDVWGQGTTVTVSSASTKGPSVFPLAPCSRSTSESTAALGCLVKDYFPEPVTVSWNSGALTSGVHTFPAVLQSSGLYSLSSVVTVPSSSLGTKTYTCNVDHKPSNTKVDKRVESKYGPPCPPCPAPPVAGPSVFLFPPKPKDTLMISRTPEVTCVVVDVSQEDPEVQFNWYVDGVEVHNAKTKPREEQFNSTYRVVSVLTVLHQDWLNGKEYKCKVSNKGLPSSIEKTISKAKGQPREPQVYTLPPSQEEMTKNQVSLTCLVKGFYPSDIAVEWESNGQPENNYKTTPPVLDSDGSFFLYSRLTVDKSRWQEGNVFSCSVMHEALHNHYTQKSLSLSLGK
light: EIVLTQSPATLSLSPGERTTLSCRASQRISTYLAWYQQKPGQAPRLLIYDASKRATGIPARFSGSGSGTGFTLTISSLEPEDFAVYYCQQRSNWPLTFGGGTKVEIKRTVAAPSVFIFPPSDEQLKSGTASVVCLLNNFYPREAKVQWKVDNALQSGNSQESVTEQDSKDSTYSLSSTLTLSKADYEKHKVYACEVTHQGLSSPVTKSFNRGEC
notes: H4sH = modified human IgG4 Fc; also called mAb1
Kd [1]: 0.0316 nM
t1/2 [1]: 1.17 h
Kd [2]: 1.82 nM
t1/2 [2]: 0.377 h

B2: H4H15482P (antibody, human IgG4 S228P, kappa)
heavy: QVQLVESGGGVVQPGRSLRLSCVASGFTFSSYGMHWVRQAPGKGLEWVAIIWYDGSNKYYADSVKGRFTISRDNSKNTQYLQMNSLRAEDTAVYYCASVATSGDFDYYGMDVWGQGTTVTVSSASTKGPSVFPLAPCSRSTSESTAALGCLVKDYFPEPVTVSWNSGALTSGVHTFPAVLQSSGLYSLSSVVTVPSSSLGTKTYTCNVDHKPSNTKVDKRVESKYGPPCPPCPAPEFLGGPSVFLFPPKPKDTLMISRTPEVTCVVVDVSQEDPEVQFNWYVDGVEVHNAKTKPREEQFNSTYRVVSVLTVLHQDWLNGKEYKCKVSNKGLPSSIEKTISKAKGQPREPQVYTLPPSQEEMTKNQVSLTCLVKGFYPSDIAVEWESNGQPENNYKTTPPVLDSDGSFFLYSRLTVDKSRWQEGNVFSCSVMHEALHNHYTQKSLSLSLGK
light: B1 light
notes: H4H = human IgG4 Fc with S108P
Kd [1]: 0.0891 nM
t1/2 [1]: 2.13 h
Kd [2]: 1.96 nM
t1/2 [2]: 0.337 h
EC50 [3]: 24.7 nM

B5: H4H15498P2 (antibody, human IgG4, V domains shown)
VH: EVQLVESGGGLVQPGGSLRLSCAASGFTFTSYAMTWVRQAPGKGLEWVSDISGSGGRTYYADSVKGRFTISRDNSKNMLYLQMNILRAEDTAVYHCAKGTGQQVDLYNYYYALDVWGQGTTVTVSS
VL: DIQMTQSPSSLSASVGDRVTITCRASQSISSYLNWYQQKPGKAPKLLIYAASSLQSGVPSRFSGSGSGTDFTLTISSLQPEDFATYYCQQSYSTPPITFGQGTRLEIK
notes: H4H = human IgG4 Fc with S108P hinge mutation
Kd [1]: 0.0217 nM
koff [1]: 1e-05 s⁻¹
kon [1]: 460000 M⁻¹ s⁻¹
t1/2 [1]: ≥ 19.2 h
Kd [2]: 0.0783 nM
koff [2]: 2.96e-05 s⁻¹
kon [2]: 381000 M⁻¹ s⁻¹
t1/2 [2]: 6.5 h
EC50 [3]: 2.95 nM
Ratio of 100 nM antibody binding HEK293-hLAG3 to HEK293 cells [4]: 38.8

B6: H4sH14813N (antibody, human IgG4 S228P, kappa, V domains shown)
VH: QVQLQQWGAGLLKPSETLSLTCAVYGGSFSGYYWNWIRQPPGKGLEWVGEISHRGSTNYNPSLKSRVTISLDTSKNQFSLKLTSVTAADTAVYYCSRDEELEFRFFDYWGQGTLVTVSS
VL: EIVLTQSPATLSLSPGERATLSCRASQSVSSYLAWYQQKPGQAPRLLVYGASNRATGIPARFSGSGSGTDFTLTISSLEPEDFAFYYCQQRSNWPLTFGGGTKVEIKR
notes: H4sH = modified human IgG4 Fc
Kd [1]: 0.0295 nM
koff [1]: 0.000101 s⁻¹
kon [1]: 3.42e+06 M⁻¹ s⁻¹
t1/2 [1]: 1.91 h
Kd [2]: 0.266 nM
koff [2]: 0.000154 s⁻¹
kon [2]: 578000 M⁻¹ s⁻¹
t1/2 [2]: 1.25 h
EC50 [3]: 20.3 nM
Ratio of 100 nM antibody binding HEK293-hLAG3 to HEK293 cells [4]: 19.8

The next lines start with the values.

Kd [1]: 0.00399 nM
koff [1]: 1e-05 s⁻¹
kon [1]: 2.5e+06 M⁻¹ s⁻¹
t1/2 [1]: ≥ 19.2 h
Kd [2]: 0.0321 nM
koff [2]: 4.08e-05 s⁻¹
kon [2]: 1.27e+06 M⁻¹ s⁻¹
t1/2 [2]: 4.72 h
EC50 [3]: 52 nM
Ratio of 100 nM antibody binding HEK293-hLAG3 to HEK293 cells [4]: 20.1
B3: H4H15479P (antibody, human IgG4, V domains shown)
VH: QVQLQQWGAGLLNPSETLSLTCAVYGGAFSDYYWNWIRQPPGKGLEWIGEINHRGSTNYNPSLKSRVTISVDTSKNQFSLRMSSVTAADAAVYYCARGEDYDIWNGYYQEKWGQGTLVTVSS
VL: EIVLTQSPATLSLSPGERATLSCRASQSISTYLAWYQQKPGQAPRLLIYDASKRATGIPARFSGSGSGTDFTLTISSLEPEDFVVYYCHQRSNWPLTFGGGTKVEIK

Kd [1]: 0.0194 nM
koff [1]: 1e-05 s⁻¹
kon [1]: 515000 M⁻¹ s⁻¹
t1/2 [1]: ≥ 19.2 h
Kd [2]: 0.185 nM
koff [2]: 7.08e-05 s⁻¹
kon [2]: 378000 M⁻¹ s⁻¹
t1/2 [2]: 2.72 h
EC50 [3]: 2.87 nM
Ratio of 100 nM antibody binding HEK293-hLAG3 to HEK293 cells [4]: 99.8
B4: H4sH15498P2 (antibody, V domains shown)
VH: B5 VH
VL: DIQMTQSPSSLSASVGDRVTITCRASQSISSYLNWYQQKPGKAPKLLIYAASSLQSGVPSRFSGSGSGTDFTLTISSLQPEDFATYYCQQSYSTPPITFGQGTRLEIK
notes: H4sH = human IgG4 Fc with 2 or more amino acid changes as disclosed in US20140243504
